Results: patent US6824991B2, “Human bad polypeptides, encoding nucleic acids and methods of use” (IDUN Pharmaceuticals Inc., priority 1996, dated 2004)

Columns and labels:
Bcl-2 = molecular target: T1, Bcl-2 (Homo sapiens, UniProt P10415); test: yeast two-hybrid assay, human Bad bait with Bcl-2 prey; format: binding; details: yeast strain EGY191, LexA-Bad bait, B42 prey, FIG. 3
T1 construct: expressed in transfected cells; host or cells: yeast strain EGY191
Text: (§1) To assess whether Bcl-2 family members bind to or otherwise interact with human Bad and to map their binding domains, a yeast two-hybrid system was employed using the above described clones. Briefly, the full length human Bad sequence was subcloned into the yeast 2-hybrid vector pEGE202, or “bait-vector” to express Bad as a fusion protein with the DNA-binding protein LexA (Ruden et al., Nature (1991) 350:426-430). Human Bcl-2, Bcl-X, Bax, Bak and Bad were similarly cloned into the yeast 2-hybrid vector pJG4-5, or “prey-vector” to expressed these Bcl-2 family members as fusion proteins with the transcriptional activator B42 (Gyuris et al., Cell (1993) 75:791-803). Briefly, the full length human Bad sequence was amplified by PCR and subcloned into the bait-vector. For the PCR reaction we used the following primers: 5′ATCAGTGAATTCACTATGTTCCAGATCCCA GAC3′ (SEQ ID NO: 4) and 5′ATCGATCTCGAGTCACTGGGAGGGGGCGGA GCT3′ (SEQ ID NO: 5). […]
(§2) To determine if human Bad binds to any of the above Bcl-2 family members, the Bad-bait plasmid was cotransformed with every prey plasmid and the reporter plasmid p18-34 into the yeast strain EGY191. […] The reaction was stopped with 0.4 M NaOH and the plate was read at an OD 420 nm. Protein-protein interaction was measured as beta-galactosidase activity using the following equation: OD 420:(OD 600×0.1 ml×ONPG reaction time).

Bcl-XL = molecular target: T2, Bcl-XL (Homo sapiens, UniProt Q07817); test: yeast two-hybrid assay, human Bad bait with Bcl-XL prey; format: binding; details: yeast strain EGY191, LexA-Bad bait, B42 prey, FIG. 3
T2 construct: expressed in transfected cells; host or cells: yeast strain EGY191
Text: as §1, §2

Bax = molecular target: T3, Bax (Homo sapiens, UniProt Q07812); test: yeast two-hybrid assay, human Bad bait with Bax prey; format: binding; details: yeast strain EGY191, LexA-Bad bait, B42 prey, FIG. 3
T3 construct: expressed in transfected cells; host or cells: yeast strain EGY191
Text: as §1, §2

Bak = molecular target: T4, Bak (Homo sapiens, UniProt Q16611); test: yeast two-hybrid assay, human Bad bait with Bak prey; format: binding; details: yeast strain EGY191, LexA-Bad bait, B42 prey, FIG. 3
T4 construct: expressed in transfected cells; host or cells: yeast strain EGY191
T4 sequence (Q16611 1-190 limits assumed): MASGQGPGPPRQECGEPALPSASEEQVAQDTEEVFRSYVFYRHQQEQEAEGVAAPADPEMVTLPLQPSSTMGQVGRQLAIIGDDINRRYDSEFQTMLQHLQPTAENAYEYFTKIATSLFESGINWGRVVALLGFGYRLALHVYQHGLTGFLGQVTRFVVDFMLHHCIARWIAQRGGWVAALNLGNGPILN
Text: as §1, §2

Bad = molecular target: T5, Bad (Homo sapiens, UniProt Q92934); test: yeast two-hybrid assay, human Bad bait with Bad prey; format: binding; details: yeast strain EGY191, LexA-Bad bait, B42 prey, FIG. 3
T5 construct: expressed in transfected cells; host or cells: yeast strain EGY191
T5 sequence (Q92934 1-168): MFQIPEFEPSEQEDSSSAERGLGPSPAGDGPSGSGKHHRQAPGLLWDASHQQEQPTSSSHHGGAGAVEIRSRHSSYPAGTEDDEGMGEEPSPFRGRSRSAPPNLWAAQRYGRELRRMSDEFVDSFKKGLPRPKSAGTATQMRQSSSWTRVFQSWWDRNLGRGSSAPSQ
Text: as §1, §2

GST-Bcl-XL = molecular target: T6, GST-Bcl-XL (Homo sapiens, UniProt Q07817); test: ELISA-type binding assay, plate-coated 6HBad with GST-Bcl-XL; details: FIG. 4
T6 construct: made in house; host or cells: E. coli XL1-Blue (pGEX constructs); E. coli BL21 pLysS (6HBad)
Text: To generate fusion proteins for these screening assays, Bad and Bcl-xL were cloned into pET-15b (Novagen) and pGEX 4T1 (Pharmacia) vectors, respectively. The pET15b-bad construct was made as follows. Full length bad cDNA was amplified by PCR using cDNA BM1 as template and primers containing NdeI (5′) and XhoI (3′) restriction sites (5′ primer: 5′-GGGAATTCCATATGTTCCAGATCCCAGAG-3′ (SEQ ID NO: 10)); 3′ primer: 5′-TACAGTCTCGAGTCACTGGGAGGGGGCGGAGCT-3′ (SEQ ID NO: 11)). The PCR product was then digested with NdeI/XhoI and ligated into the NdeI and XhoI sites of pET15b. The above primer sequences were chosen such that the bad ORF sequence would be in frame with 5′ vector sequence encoding a six residue Histidine tag. The final construct was termed pET-15 6H Bad. […]

GST-Bcl-2 = GST-Bcl-2 (Homo sapiens, UniProt P10415); test: ELISA-type binding assay, plate-coated 6HBad with GST-Bcl-2; details: anti-GST detection, FIG. 4
GST-Bcl-2, sequence (P10415 whole entry): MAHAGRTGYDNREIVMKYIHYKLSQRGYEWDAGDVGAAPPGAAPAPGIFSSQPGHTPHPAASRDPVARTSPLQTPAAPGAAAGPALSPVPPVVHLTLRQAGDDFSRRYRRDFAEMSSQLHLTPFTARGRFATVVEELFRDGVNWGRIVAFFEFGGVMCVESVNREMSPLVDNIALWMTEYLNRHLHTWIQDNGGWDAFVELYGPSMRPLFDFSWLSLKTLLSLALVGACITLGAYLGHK

T6 sequence (Q07817 1-211 limits assumed): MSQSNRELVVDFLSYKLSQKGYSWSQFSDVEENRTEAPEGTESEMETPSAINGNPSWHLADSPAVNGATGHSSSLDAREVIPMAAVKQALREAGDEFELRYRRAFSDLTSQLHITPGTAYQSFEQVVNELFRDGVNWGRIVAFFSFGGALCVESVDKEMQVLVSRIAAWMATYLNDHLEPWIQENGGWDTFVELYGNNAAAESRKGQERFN
T3 sequence (Q07812 1-174 limits assumed): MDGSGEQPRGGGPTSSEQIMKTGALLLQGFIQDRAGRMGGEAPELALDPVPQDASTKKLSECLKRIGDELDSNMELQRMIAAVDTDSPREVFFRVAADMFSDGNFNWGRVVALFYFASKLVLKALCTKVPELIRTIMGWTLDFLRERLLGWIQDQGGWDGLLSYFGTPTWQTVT
T2 sequence (Q07817 1-212 limits assumed): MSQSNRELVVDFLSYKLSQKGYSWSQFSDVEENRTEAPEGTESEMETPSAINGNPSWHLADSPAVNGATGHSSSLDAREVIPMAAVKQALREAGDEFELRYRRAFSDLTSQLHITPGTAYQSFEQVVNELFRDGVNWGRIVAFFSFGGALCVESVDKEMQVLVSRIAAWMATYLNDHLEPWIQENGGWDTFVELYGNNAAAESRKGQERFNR
T1 sequence (P10415 1-218 limits assumed): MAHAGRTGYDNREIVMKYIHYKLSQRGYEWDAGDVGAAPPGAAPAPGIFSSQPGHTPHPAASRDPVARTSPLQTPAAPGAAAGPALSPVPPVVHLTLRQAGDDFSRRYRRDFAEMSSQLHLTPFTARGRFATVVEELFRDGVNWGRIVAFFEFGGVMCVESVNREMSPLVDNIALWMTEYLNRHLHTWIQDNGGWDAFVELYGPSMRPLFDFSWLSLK

B1: human Bad: human Bcl-xL/Bcl-2 associated death promoting polypeptide, SEQ ID NO:2, encoded by cDNA clone BM1 (protein, listed as Homo sapiens)
chain: MFQIPEFEPSEQEDSSSAERGLGPSPAGDGPSGSGKHHRQAPGLLWDASHQQEQPTSSSHHGGAGAVEIRSRHSSYPAGTEDDEGMGEEPSPFRGRSRSAPPNLWAAQRYGRELRRMSDEFVDSFKKGLPRPKSAGTATQMRQSSSWTRVFQSWWDRNLGRGSSAPSQ
With B1 the “protein-protein interaction with Bcl-2 (beta-galactosidase activity)” value (Bcl-2) was “interacts”, the “protein-protein interaction with Bcl-XL (beta-galactosidase activity)” value (Bcl-XL) was “interacts” and the “protein-protein interaction with Bax (beta-galactosidase activity)” value (Bax) was “no interactions were observed”. For the same molecule, the “protein-protein interaction with Bak (beta-galactosidase activity)” value (Bak) was “no interactions were observed” and the “protein-protein interaction with itself (beta-galactosidase activity)” value (Bad) was “no interactions were observed”.

B2: 6HBad: full length human Bad with a six residue Histidine tag, expressed from pET-15 6H Bad in E. coli (protein)
chain: MFQIPEFEPSEQEDSSSAERGLGPSPAGDGPSGSGKHHRQAPGLLWDASHQQEQPTSSSHHGGAGAVEIRSRHSSYPAGTEDDEGMGEEPSPFRGRSRSAPPNLWAAQRYGRELRRMSDEFVDSFKKGLPRPKSAGTATQMRQSSSWTRVFQSWWDRNLGRGSSAPSQ
modifications: left off: small tags and cut ends
With B2 the “relative binding affinity to GST-Bcl-xL in ELISA” value (GST-Bcl-XL; compared with GST-Bcl-2 and GST-Bax) was “highest affinity”, the “interaction with GST-Bcl-XL in ELISA” value (GST-Bcl-XL; plate-coated 6HBad, anti-GST detection) was “interacts” and the “interaction with GST-Bcl-2 in ELISA” value (GST-Bcl-2) was “interacts”.
